Patent US20130336893A1 (Sanofi, published 2013)
*1 amine or outer side, *2 acyl side, *3 side chain or, on linkers, in order; H or OH if unused. Where no end group is shown, it is not given here. Side-chain parts run from the residue outwards. [ ]: non-standard residue; d: D form. The star is where a group is joined. γGlu = O=C(O)[C@H](CCC(=O)[*:2])N[*:1]; Palmitoyl = CCCCCCCCCCCCCCCC(=O)*; Propionyl = CCC(=O)*; βAla = NCCC(=O)O

Key:
human GLP-1 receptor = human GLP-1 receptor (human, UniProt P43220 24-463); assay: cell-based or functional assay
human glucagon receptor = human glucagon receptor (human, UniProt P47871 26-477); assay: cell-based or functional assay
Sequence of human glucagon receptor (P47871 26-477): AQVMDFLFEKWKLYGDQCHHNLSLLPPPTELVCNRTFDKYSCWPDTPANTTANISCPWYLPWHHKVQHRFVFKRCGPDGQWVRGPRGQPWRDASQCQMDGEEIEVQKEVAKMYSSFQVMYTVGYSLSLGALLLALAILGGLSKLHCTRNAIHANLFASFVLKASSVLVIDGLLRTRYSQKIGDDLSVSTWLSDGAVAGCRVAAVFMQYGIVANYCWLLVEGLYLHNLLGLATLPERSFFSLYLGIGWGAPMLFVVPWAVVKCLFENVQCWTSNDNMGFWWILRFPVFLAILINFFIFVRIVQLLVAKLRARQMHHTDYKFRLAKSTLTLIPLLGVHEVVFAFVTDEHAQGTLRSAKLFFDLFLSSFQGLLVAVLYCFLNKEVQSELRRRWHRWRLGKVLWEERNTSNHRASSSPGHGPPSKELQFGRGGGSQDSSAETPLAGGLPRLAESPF

Binder	EC50 hGLP-1R (cAMP formation) (human GLP-1 receptor)	EC50 hGlucagonR (cAMP formation) (human glucagon receptor)
H[dS]QGTFTSDLSKQMESRRAQDFIEWLKSGGPSSGAPPPSK([βAla-βAla-Palmitoyl])-NH2 (N-terminus assumed; SMILES CCCCCCCCCCCCCCCC(=O)NCCC(=O)NCCC(=O)NCCCC[C@H](NC(=O)[C@H](CO)NC(=O)[C@@H]1CCCN1C(=O)[C@@H]1CCCN1C(=O)[C@@H]1CCCN1C(=O)[C@H](C)NC(=O)CNC(=O)[C@H](CO)NC(=O)[C@H](CO)NC(=O)[C@@H]1CCCN1C(=O)CNC(=O)CNC(=O)[C@H](CO)NC(=O)[C@H](CCCCN)NC(=O)[C@H](CC(C)C)NC(=O)[C@H](Cc1c[nH]c2ccccc12)NC(=O)[C@H](CCC(=O)O)NC(=O)[C@@H](NC(=O)[C@H](Cc1ccccc1)NC(=O)[C@H](CC(=O)O)NC(=O)[C@H](CCC(N)=O)NC(=O)[C@H](C)NC(=O)[C@H](CCCNC(=N)N)NC(=O)[C@H](CCCNC(=N)N)NC(=O)[C@H](CO)NC(=O)[C@H](CCC(=O)O)NC(=O)[C@H](CCSC)NC(=O)[C@H](CCC(N)=O)NC(=O)[C@H](CCCCN)NC(=O)[C@H](CO)NC(=O)[C@H](CC(C)C)NC(=O)[C@H](CC(=O)O)NC(=O)[C@H](CO)NC(=O)[C@@H](NC(=O)[C@H](Cc1ccccc1)NC(=O)[C@@H](NC(=O)CNC(=O)[C@H](CCC(N)=O)NC(=O)[C@@H](CO)NC(=O)[C@@H](N)Cc1c[nH]cn1)[C@@H](C)O)[C@@H](C)O)[C@@H](C)CC)C(N)=O) [SEQ ID NO: (98)]	0.0051 nM	0.0146 nM
H[dS]QGTFTSDLSKQMESRRAQDFIEWLKSGGPSSGAPPPK([βAla-βAla-Palmitoyl])-NH2 (N-terminus assumed; SMILES CCCCCCCCCCCCCCCC(=O)NCCC(=O)NCCC(=O)NCCCC[C@H](NC(=O)[C@@H]1CCCN1C(=O)[C@@H]1CCCN1C(=O)[C@@H]1CCCN1C(=O)[C@H](C)NC(=O)CNC(=O)[C@H](CO)NC(=O)[C@H](CO)NC(=O)[C@@H]1CCCN1C(=O)CNC(=O)CNC(=O)[C@H](CO)NC(=O)[C@H](CCCCN)NC(=O)[C@H](CC(C)C)NC(=O)[C@H](Cc1c[nH]c2ccccc12)NC(=O)[C@H](CCC(=O)O)NC(=O)[C@@H](NC(=O)[C@H](Cc1ccccc1)NC(=O)[C@H](CC(=O)O)NC(=O)[C@H](CCC(N)=O)NC(=O)[C@H](C)NC(=O)[C@H](CCCNC(=N)N)NC(=O)[C@H](CCCNC(=N)N)NC(=O)[C@H](CO)NC(=O)[C@H](CCC(=O)O)NC(=O)[C@H](CCSC)NC(=O)[C@H](CCC(N)=O)NC(=O)[C@H](CCCCN)NC(=O)[C@H](CO)NC(=O)[C@H](CC(C)C)NC(=O)[C@H](CC(=O)O)NC(=O)[C@H](CO)NC(=O)[C@@H](NC(=O)[C@H](Cc1ccccc1)NC(=O)[C@@H](NC(=O)CNC(=O)[C@H](CCC(N)=O)NC(=O)[C@@H](CO)NC(=O)[C@@H](N)Cc1c[nH]cn1)[C@@H](C)O)[C@@H](C)O)[C@@H](C)CC)C(N)=O) [SEQ ID NO: (100)]	0.0096 nM	0.0166 nM
HSQGTFTSDLSKQMEERRAKDFIEWLKNGGPSSGAPPPS-NH2 [SEQ ID NO: (16)]	0.0076 nM	2.13 nM
H[dS]QGTFTSDLSKQMESRAAQDFIEWLKSGGPSSGAPPPSK([γGlu-Palmitoyl])-NH2 (N-terminus assumed; SMILES CCCCCCCCCCCCCCCC(=O)N[C@@H](CCC(=O)NCCCC[C@H](NC(=O)[C@H](CO)NC(=O)[C@@H]1CCCN1C(=O)[C@@H]1CCCN1C(=O)[C@@H]1CCCN1C(=O)[C@H](C)NC(=O)CNC(=O)[C@H](CO)NC(=O)[C@H](CO)NC(=O)[C@@H]1CCCN1C(=O)CNC(=O)CNC(=O)[C@H](CO)NC(=O)[C@H](CCCCN)NC(=O)[C@H](CC(C)C)NC(=O)[C@H](Cc1c[nH]c2ccccc12)NC(=O)[C@H](CCC(=O)O)NC(=O)[C@@H](NC(=O)[C@H](Cc1ccccc1)NC(=O)[C@H](CC(=O)O)NC(=O)[C@H](CCC(N)=O)NC(=O)[C@H](C)NC(=O)[C@H](C)NC(=O)[C@H](CCCNC(=N)N)NC(=O)[C@H](CO)NC(=O)[C@H](CCC(=O)O)NC(=O)[C@H](CCSC)NC(=O)[C@H](CCC(N)=O)NC(=O)[C@H](CCCCN)NC(=O)[C@H](CO)NC(=O)[C@H](CC(C)C)NC(=O)[C@H](CC(=O)O)NC(=O)[C@H](CO)NC(=O)[C@@H](NC(=O)[C@H](Cc1ccccc1)NC(=O)[C@@H](NC(=O)CNC(=O)[C@H](CCC(N)=O)NC(=O)[C@@H](CO)NC(=O)[C@@H](N)Cc1c[nH]cn1)[C@@H](C)O)[C@@H](C)O)[C@@H](C)CC)C(N)=O)C(=O)O) [SEQ ID NO: (103)]	0.0037 nM	0.0459 nM
H[dS]QGTFTSDLSKQMESRRAQDFIEWLKEGGPSSGKPPPSK([γGlu-Palmitoyl])-NH2 (N-terminus assumed; SMILES CCCCCCCCCCCCCCCC(=O)N[C@@H](CCC(=O)NCCCC[C@H](NC(=O)[C@H](CO)NC(=O)[C@@H]1CCCN1C(=O)[C@@H]1CCCN1C(=O)[C@@H]1CCCN1C(=O)[C@H](CCCCN)NC(=O)CNC(=O)[C@H](CO)NC(=O)[C@H](CO)NC(=O)[C@@H]1CCCN1C(=O)CNC(=O)CNC(=O)[C@H](CCC(=O)O)NC(=O)[C@H](CCCCN)NC(=O)[C@H](CC(C)C)NC(=O)[C@H](Cc1c[nH]c2ccccc12)NC(=O)[C@H](CCC(=O)O)NC(=O)[C@@H](NC(=O)[C@H](Cc1ccccc1)NC(=O)[C@H](CC(=O)O)NC(=O)[C@H](CCC(N)=O)NC(=O)[C@H](C)NC(=O)[C@H](CCCNC(=N)N)NC(=O)[C@H](CCCNC(=N)N)NC(=O)[C@H](CO)NC(=O)[C@H](CCC(=O)O)NC(=O)[C@H](CCSC)NC(=O)[C@H](CCC(N)=O)NC(=O)[C@H](CCCCN)NC(=O)[C@H](CO)NC(=O)[C@H](CC(C)C)NC(=O)[C@H](CC(=O)O)NC(=O)[C@H](CO)NC(=O)[C@@H](NC(=O)[C@H](Cc1ccccc1)NC(=O)[C@@H](NC(=O)CNC(=O)[C@H](CCC(N)=O)NC(=O)[C@@H](CO)NC(=O)[C@@H](N)Cc1c[nH]cn1)[C@@H](C)O)[C@@H](C)O)[C@@H](C)CC)C(N)=O)C(=O)O) [SEQ ID NO: (104)]	0.0073 nM	0.0287 nM
H[dS]QGTFTSDLSKQMESRRAQDFIEWLKSGGPSSGAPPPSK(Ac)-NH2 [SEQ ID NO: (105)]	0.142 nM	0.614 nM
H[dS]QGTFTSDLSKQMESRRAQDFIEWLKSGGPSSGAPPPSK([γGlu-Propionyl])-NH2 [SEQ ID NO: (106)]	0.315 nM	1.32 nM
H[dS]QGTFTSDLSKQMESRRAQDFIEWLKSGGPSSGAPPPSK(6‑((4,4-diphenyl-cyclohexyloxy)-hydroxy-phosphoryloxy)‑hexanoyl)-NH2 [SEQ ID NO: (107)]	0.009 nM	5.16 nM
H[dS]QGTFTSDLSKQMEEEAAQDFIEWLKAGGPSSGAPPPSK([γGlu-Palmitoyl])-NH2 (N-terminus assumed; SMILES CCCCCCCCCCCCCCCC(=O)N[C@@H](CCC(=O)NCCCC[C@H](NC(=O)[C@H](CO)NC(=O)[C@@H]1CCCN1C(=O)[C@@H]1CCCN1C(=O)[C@@H]1CCCN1C(=O)[C@H](C)NC(=O)CNC(=O)[C@H](CO)NC(=O)[C@H](CO)NC(=O)[C@@H]1CCCN1C(=O)CNC(=O)CNC(=O)[C@H](C)NC(=O)[C@H](CCCCN)NC(=O)[C@H](CC(C)C)NC(=O)[C@H](Cc1c[nH]c2ccccc12)NC(=O)[C@H](CCC(=O)O)NC(=O)[C@@H](NC(=O)[C@H](Cc1ccccc1)NC(=O)[C@H](CC(=O)O)NC(=O)[C@H](CCC(N)=O)NC(=O)[C@H](C)NC(=O)[C@H](C)NC(=O)[C@H](CCC(=O)O)NC(=O)[C@H](CCC(=O)O)NC(=O)[C@H](CCC(=O)O)NC(=O)[C@H](CCSC)NC(=O)[C@H](CCC(N)=O)NC(=O)[C@H](CCCCN)NC(=O)[C@H](CO)NC(=O)[C@H](CC(C)C)NC(=O)[C@H](CC(=O)O)NC(=O)[C@H](CO)NC(=O)[C@@H](NC(=O)[C@H](Cc1ccccc1)NC(=O)[C@@H](NC(=O)CNC(=O)[C@H](CCC(N)=O)NC(=O)[C@@H](CO)NC(=O)[C@@H](N)Cc1c[nH]cn1)[C@@H](C)O)[C@@H](C)O)[C@@H](C)CC)C(N)=O)C(=O)O) [SEQ ID NO: (108)]	0.0021 nM	0.541 nM
H[dS]QGTFTSDLSKQMESEAAQDFIEWLKAGGPSSGAPPPSK([γGlu-Palmitoyl])-NH2 (N-terminus assumed; SMILES CCCCCCCCCCCCCCCC(=O)N[C@@H](CCC(=O)NCCCC[C@H](NC(=O)[C@H](CO)NC(=O)[C@@H]1CCCN1C(=O)[C@@H]1CCCN1C(=O)[C@@H]1CCCN1C(=O)[C@H](C)NC(=O)CNC(=O)[C@H](CO)NC(=O)[C@H](CO)NC(=O)[C@@H]1CCCN1C(=O)CNC(=O)CNC(=O)[C@H](C)NC(=O)[C@H](CCCCN)NC(=O)[C@H](CC(C)C)NC(=O)[C@H](Cc1c[nH]c2ccccc12)NC(=O)[C@H](CCC(=O)O)NC(=O)[C@@H](NC(=O)[C@H](Cc1ccccc1)NC(=O)[C@H](CC(=O)O)NC(=O)[C@H](CCC(N)=O)NC(=O)[C@H](C)NC(=O)[C@H](C)NC(=O)[C@H](CCC(=O)O)NC(=O)[C@H](CO)NC(=O)[C@H](CCC(=O)O)NC(=O)[C@H](CCSC)NC(=O)[C@H](CCC(N)=O)NC(=O)[C@H](CCCCN)NC(=O)[C@H](CO)NC(=O)[C@H](CC(C)C)NC(=O)[C@H](CC(=O)O)NC(=O)[C@H](CO)NC(=O)[C@@H](NC(=O)[C@H](Cc1ccccc1)NC(=O)[C@@H](NC(=O)CNC(=O)[C@H](CCC(N)=O)NC(=O)[C@@H](CO)NC(=O)[C@@H](N)Cc1c[nH]cn1)[C@@H](C)O)[C@@H](C)O)[C@@H](C)CC)C(N)=O)C(=O)O) [SEQ ID NO: (109)]	0.0033 nM	0.277 nM
